Test results from patent US20180311371A1 (Hoffmann-La Roche, published 2018).

T1: human TPBG (trophoblast glycoprotein), full length, cell surface expressed (human, UniProt Q13641 32-420)
T1 sequence: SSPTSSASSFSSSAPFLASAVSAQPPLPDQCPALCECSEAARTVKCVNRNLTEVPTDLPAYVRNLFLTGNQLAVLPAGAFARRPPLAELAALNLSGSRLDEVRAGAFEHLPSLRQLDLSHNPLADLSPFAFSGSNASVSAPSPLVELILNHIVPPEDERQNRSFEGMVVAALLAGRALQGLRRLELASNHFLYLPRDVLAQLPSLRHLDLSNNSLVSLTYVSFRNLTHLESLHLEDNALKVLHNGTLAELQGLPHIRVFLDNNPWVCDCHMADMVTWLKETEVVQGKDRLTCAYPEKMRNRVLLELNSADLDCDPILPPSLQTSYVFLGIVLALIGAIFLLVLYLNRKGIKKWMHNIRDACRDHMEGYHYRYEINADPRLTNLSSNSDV

T2: huTPBG (recombinant human TPBG immobilised on the Biacore chip) (human, UniProt Q13641 32-355, limits assumed)
T2 construct: also called human TPBG antigen
T2 sequence: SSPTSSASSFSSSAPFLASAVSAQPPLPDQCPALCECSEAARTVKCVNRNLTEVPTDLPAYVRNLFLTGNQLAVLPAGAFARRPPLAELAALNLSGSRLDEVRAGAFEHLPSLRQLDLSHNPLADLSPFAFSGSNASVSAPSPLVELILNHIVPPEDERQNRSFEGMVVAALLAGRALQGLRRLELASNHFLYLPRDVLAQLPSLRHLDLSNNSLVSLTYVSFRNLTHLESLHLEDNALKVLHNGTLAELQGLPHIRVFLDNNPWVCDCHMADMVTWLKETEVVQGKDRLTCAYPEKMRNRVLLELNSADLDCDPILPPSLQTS

T3: minipig TPBG, full length, cell surface expressed on CHO-K1 cells (minipig)
T3 chain: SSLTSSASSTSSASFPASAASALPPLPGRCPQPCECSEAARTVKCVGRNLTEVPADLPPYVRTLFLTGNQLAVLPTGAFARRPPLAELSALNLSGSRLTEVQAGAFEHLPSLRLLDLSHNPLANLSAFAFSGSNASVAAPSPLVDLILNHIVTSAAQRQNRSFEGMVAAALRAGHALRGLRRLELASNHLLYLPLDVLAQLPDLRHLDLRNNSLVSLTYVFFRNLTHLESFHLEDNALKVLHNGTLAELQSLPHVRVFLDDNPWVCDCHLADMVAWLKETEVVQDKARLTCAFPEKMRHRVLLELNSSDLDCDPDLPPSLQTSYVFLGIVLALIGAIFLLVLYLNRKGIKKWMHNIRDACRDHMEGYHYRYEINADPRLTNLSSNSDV

B1: anti-TPBG 051 Fab-PE fusion protein (refolded from E. coli inclusion bodies) (Fab)
heavy: MEVQLLESGGGLLQPGGSLRLSCAASGFTFSIYWMTWVRQAPGKGLEWVSAISGSGGSTYYADSVKGRFTISRDNSKNTLYLQMNSLRAEDTAVYYCAKDYYSNVYWGQGTLVTVSSASTKGPSVFPLAPSSKSTSGGTAALGCLVKDYFPEPVTVSWNSGALTSGVHTFPAVLQSSGLYSLSSVVTVPSSSLGTQTYICNVNHKPSNTKVDKKVEPKSCDKTHKASGGRHRQPRGWEQLGGGGGSPTGAEFLGDGGDVSFSTRGTQNWTVERLLQAHAQLEERGYVFVGYHGTFLEAAQSIVFGGVAARSQDLAAIWAGFYIAGDPALAYGYAQDQEPDAAGRIRNGALLRVYVPASSLPGFYRTSLTLAAPEAAGEVERLIGHPLPLALDAITGPEEEGGRLETILGWPLAERTVVIPSAIPTDPRNVGGDLDPSSIPDKEQAISALPDYASQPGKPPREDLK
light: MDIQMTQSPSSVSASVGDRVTITCRASQGIYSWLAWYQQKPGKAPKLLIYAASSLQSGVPSRFSGSGSGTDFTLTISSLQPEDFATYYCQQSDSPPYTFGQGTKLEIKRTVAAPSVFIFPPSDEQLKSGTASVVCLLNNFYPREAKVQWKVDNALQSGNSQESVTEQDSKDSTYSLSSTLTLSKADYEKHKVYACEVTHQGLSSPVTKSFNRGEC
notes: also called Fab-PE comprising antibody 051
B2: anti-TPBG 097 Fab-PE fusion protein (refolded from E. coli inclusion bodies) (Fab)
heavy: MEVQLLESGGGLAQPGGSLRLSCAASGFTFNNDAMTWVRQAPGKGLEWVSAISGSGGSTYYADSVKGRFTISRDNSKNTLYLQMNSLRAEDTAVYYCAKGGSWGDWYYYFYPMDVWGQGTTVTVSSASTKGPSVFPLAPSSKSTSGGTAALGCLVKDYFPEPVTVSWNSGALTSGVHTFPAVLQSSGLYSLSSVVTVPSSSLGTQTYICNVNHKPSNTKVDKKVEPKSCDKTHKASGGRHRQPRGWEQLGGGGGSPTGAEFLGDGGDVSFSTRGTQNWTVERLLQAHAQLEERGYVFVGYHGTFLEAAQSIVFGGVAARSQDLAAIWAGFYIAGDPALAYGYAQDQEPDAAGRIRNGALLRVYVPASSLPGFYRTSLTLAAPEAAGEVERLIGHPLPLALDAITGPEEEGGRLETILGWPLAERTVVIPSAIPTDPRNVGGDLDPSSIPDKEQAISALPDYASQPGKPPREDLK
light: not shown
notes: also called Fab-PE comprising antibody 097
B3: anti-TPBG 091 Fab-PE fusion protein (refolded from E. coli inclusion bodies) (Fab)
heavy: MEVHLLESGGGLVHPGGSLRLSCAASGFTFRSDAMHWVRQAPGKGLEWVSGVSGSGGSPYYADSVKGRFTISRDDSKTTLYLQMNSLRAEDTAVYYCATGGSIAGSYYYYPMDVWGQGTTVTVSSASTKGPSVFPLAPSSKSTSGGTAALGCLVKDYFPEPVTVSWNSGALTSGVHTFPAVLQSSGLYSLSSVVTVPSSSLGTQTYICNVNHKPSNTKVDKKVEPKSCDKTHKASGGRHRQPRGWEQLGGGGGSPTGAEFLGDGGDVSFSTRGTQNWTVERLLQAHAQLEERGYVFVGYHGTFLEAAQSIVFGGVAARSQDLAAIWAGFYIAGDPALAYGYAQDQEPDAAGRIRNGALLRVYVPASSLPGFYRTSLTLAAPEAAGEVERLIGHPLPLALDAITGPEEEGGRLETILGWPLAERTVVIPSAIPTDPRNVGGDLDPSSIPDKEQAISALPDYASQPGKPPREDLK
light: not shown
notes: also called Fab-PE comprising antibody 091

Each binder was assayed against T1, human TPBG (trophoblast glycoprotein), … (assay: cell-based or functional assay).

Binder | X-fold higher potency than Fab-PE fusion protein of H8, H1975, 10 min | X-fold higher potency than Fab-PE fusion protein of H8, H1975, 30 min | X-fold higher potency than Fab-PE fusion protein of H8, H1975, 60 min | X-fold higher potency than Fab-PE fusion protein of H8, H1975, continuous
B1 | 1.1 fold | 1 fold | 1 fold | 1.1 fold
B2 | 0.9 fold | 0.9 fold | 1.1 fold | 1.1 fold
B3 | 4 fold | 3.3 fold | 4.2 fold | 3.7 fold

Biological target: T1, human TPBG (trophoblast glycoprotein), …
Test: cell-based or functional assay
Remark: another data set of the same source

Binder | EC50 proliferation, H1975, 10 min exposure | EC50 proliferation, H1975, 30 min exposure | EC50 proliferation, H1975, 60 min exposure | EC50 proliferation, H1975, continuous exposure
B1 | 0.241 nM | 0.204 nM | 0.18 nM | 0.014 nM
B2 | 0.211 nM | 0.189 nM | 0.203 nM | 0.013 nM
B3 | 0.057 nM | 0.062 nM | 0.043 nM | 0.003 nM

Biological target: T1, human TPBG (trophoblast glycoprotein), …
Test: cell-based or functional assay
Remark: another data set of the same source

Binder | EC50 cytotoxicity, Fab-PE fusion, H1975, replicate 1 | EC50 cytotoxicity, Fab-PE fusion, H1975, replicate 2
B1 | 0.016 nM | 0.014 nM
B2 | 0.013 nM | 0.013 nM
B3 | 0.005 nM | 0.003 nM

Each binder was assayed against T2, huTPBG (recombinant human TPBG …) (assay: SPR Biacore T200; huTPBG amine-coupled, Fab-PE injected; pH 7.4).

Binder | Kd | koff | kon
B1 | 0.121 nM | 3.46e-05 s⁻¹ | 286000 M⁻¹ s⁻¹
B2 | 1.97 nM | 0.00121 s⁻¹ | 614000 M⁻¹ s⁻¹
B3 | 0.461 nM | 0.000129 s⁻¹ | 280000 M⁻¹ s⁻¹

Each binder was assayed against T1, human TPBG (trophoblast glycoprotein), … (assay: not given).

Binder | EC50
B1 | 1.25 nM
B2 | 0.64 nM
B3 | 0.89 nM

Biological target: T1, human TPBG (trophoblast glycoprotein), …
Test: cell-based or functional assay
Remark: another data set of the same source

Binder | EC50 cytotoxicity, Fab-PE fusion, stable CHO-K1 huTPBG
B1 | 0.03 nM
B2 | 0.04 nM
B3 | 0.05 nM

Biological target: T3, minipig TPBG, full length, cell surface …
Test: cell-based or functional assay

Binder | EC50 cytotoxicity, Fab-PE fusion, stable CHO-K1 pgTPBG | X-fold lower potency pgTPBG versus huTPBG
B1 | 1.37 nM | 51.7 fold
B2 | 0.14 nM | 3.4 fold
B3 | 0.15 nM | 3.3 fold

The binders below were run against T1, human TPBG (trophoblast glycoprotein), … (assay: flow cytometry on CHO-K1 stably expressing human TPBG; Fab-PE fusion).

Binder | EC50
B1 | 12.4 nM
B2 | 5.6 nM
B3 | 8.5 nM

Biological target: T3, minipig TPBG, full length, cell surface …
Test: flow cytometry on CHO-K1 stably expressing minipig TPBG; Fab-PE fusion

Binder | EC50
B1 | 16.9 nM
B2 | 15.4 nM
B3 | 10.8 nM

Each binder was assayed against T2, huTPBG (recombinant human TPBG …) (assay: SPR Biacore T200; huTPBG amine-coupled, Fab-PE injected; pH 5.5).

Binder | Kd | koff | kon
B1 | 0.292 nM | 0.000113 s⁻¹ | 386000 M⁻¹ s⁻¹
B2 | 7.49 nM | 0.00605 s⁻¹ | 808000 M⁻¹ s⁻¹
B3 | 8.89 nM | 0.00201 s⁻¹ | 226000 M⁻¹ s⁻¹

Biological target: T1, human TPBG (trophoblast glycoprotein), …
Test: cell-based or functional assay
Remark: another data set of the same source

Binder | EC50 protein synthesis inhibition (luciferase), BxPC-3, replicate 1 | EC50 protein synthesis inhibition (luciferase), BxPC-3, replicate 2
B1 | 0.027 nM | 0.015 nM
B2 | 0.022 nM | 0.008 nM
B3 | 0.014 nM | 0.007 nM
